The target in one data set is T1, PpAKR1A (Physcomitrium patens, UniProt A9RMV1).
T1 construct: gene LOC112295666; full coding region (from ATGGCGTTCGAAGTGCCT), expressed in E. coli BL21 from pMAL-c1 (BamHI/SalI); purified on Ni-NTA as 'His-fusion' (tag description inconsistent: MBP vector vs His)
T1 sequence (A9RMV1 1-354): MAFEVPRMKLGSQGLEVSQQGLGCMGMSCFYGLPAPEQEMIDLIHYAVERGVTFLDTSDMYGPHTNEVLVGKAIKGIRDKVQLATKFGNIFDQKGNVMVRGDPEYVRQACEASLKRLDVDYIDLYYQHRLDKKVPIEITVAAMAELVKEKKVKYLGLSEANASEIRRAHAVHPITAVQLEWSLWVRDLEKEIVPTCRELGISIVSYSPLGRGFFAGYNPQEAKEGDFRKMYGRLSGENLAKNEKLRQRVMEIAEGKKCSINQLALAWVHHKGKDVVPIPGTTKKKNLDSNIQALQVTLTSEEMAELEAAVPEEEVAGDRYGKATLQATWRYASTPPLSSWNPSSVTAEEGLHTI
The data set is described as follows: spectrophotometric NADPH oxidation at […] nm, Michaelis-Menten non-linear fit. It is filed as biochemical. The note with it: 150 µM NADPH, 50 mM Tris-HCl pH 7.0, 25 °C; apparent constant.

Substrate in data set [1]: O=CC=O
The data set is described as follows: purified protein. It is filed as biochemical, Physcomitrium patens. The note with it: 150 µM NADPH, 50 mM Tris-HCl pH 7.0, 25 °C, apparent constant.

Substrate in data set [2]: CC(=O)C=O
The data set is described as follows: purified protein. The note with it: 150 µM NADPH, 50 mM Tris-HCl pH 7.0, 25 °C, apparent constant. It is filed as biochemical, Physcomitrium patens.

As usually defined, the Km is the concentration of substrate that gives half-maximal velocity. Consider `C=CC=O` [Acrolein], for which the Km on PpAKR1A worked out at 6.2 ± 1.11 mM.

B1: PpAKR1A (Physcomitrium patens) (protein)
chain: T1 sequence (A9RMV1 1-354)
notes: full coding region (from …), expressed in E. coli BL21 from pMAL-c1 (BamHI/SalI); purified on Ni-NTA as 'His-fusion' (tag description inconsistent: MBP vector vs His)
Broadly, the kcat is the number of substrate molecules converted per active site and unit of time at saturation. The kcat/Km is the second-order rate constant that governs catalysis at low substrate concentration. As to B1, in “purified protein [1]”, the Km stood at 1.526 ± 0.237 mM, the kcat worked out at 0.063 ± 0.041 s⁻¹ and the kcat/Km turned out to be 63 M⁻¹ s⁻¹. In “purified protein [2]”, the Km turned out to be 0.2262 ± 0.063 mM, the kcat was 0.86 ± 0.055 s⁻¹ and the kcat/Km was found to be 3810 M⁻¹ s⁻¹.

Values taken from publication PMC6888457, “PpAKR1A, a Novel Aldo-Keto Reductase from Physcomitrella Patens, Plays a Positive Role in Salt Stress” (International Journal of Molecular Sciences, 2019).
